Results on 14 molecules are retold here after patent publication US9346871B2, “Engineered CXCL12 alpha locked dimer polypeptide” (The Medical College of Wisconsin, priority 2008, dated 2016).

What is called EC50 is the concentration that produces a half-maximal response.

One series has as its target T1, CXCL12-α (Homo sapiens, UniProt P48061).
T1 construct: made in house; host or cells: E. coli
The series is described as follows: Binding of CXCR4 N-terminal p38 peptides to CXCL12-α. The following applies: read-out: apparent Kd.

The target of the next series is T2, CXCR4 (Homo sapiens, UniProt P61073).
T2 construct: a Ca^2+-flux assay on CXCR4-expressing THP-1 cells; host or cells: THP-1
The series is described as follows: Ca2+-flux assay of CXCR4 activation in THP-1 cells. The class given is cell-based. From the text:
(§1) The Protein Data Bank (PDB), under accession numbers 2K01, 2K04, 2K03 and 2K05 contain coordinates for these structural models. Restraints employed for structure determination have been deposited in the Biological Magnetic Resonance Bank, accession numbers 15633, 15636, 15635 and 15637. […] THP-1 cells are a CXCR4-expressing monocyte leukemia cell line and were obtained from ATCC.
The inventors monitored activation of CXCR4 using THP-1 cells and a similar Ca^2+-flux assay.

Another series concerns THP-1 cells. Kind of series: Transwell chemotaxis assay of THP-1 cells. The class given is cell-based.
Description: FIG. 5. […] C) Schematic illustration of the bell-shaped profile for CXCL12-α-mediated chemotaxis arising from changes in relative concentrations of chemokine monomer and dimer.
as §1

The nature of series [1]: Pulsed-field gradient NMR translational diffusion, CXCL12-α monomer-dimer equilibrium. The following applies: 10, 50 and 150 μM protein. It counts as physicochemical. As to the method: FIG. 1. […] The lines connecting the cysteines show where the intra- and intermolecular disulfide bonds are. […] Diffusion coefficients (Ds) of wild-type CXCL12 (black circles) in 20 mM sodium phosphate at pH 7.4 plotted versus chemokine concentration. […] D) N-terminal peptides corresponding to the first thirty-eight amino acids of CXCR4 are illustrated.

Another series concerns HIV-1. The following applies: compared with wild-type chemokine. From the text:
Certain strains of HIV (X4 or dual tropic) utilize CXCR4 as a co-receptor, and this interaction is critical for fusion of the viral and T cell membranes in the process of HIV entry.

A further series is described as follows: Heparin binding. The text has this: Further, in addition to binding CXCR4, CXCL12 also binds to heparin found in the extracellular matrix on cell surfaces. The inventors have shown that the CXCL12α2 locked dimer of the present invention also binds heparin. Amino acid substitutions in CXCL12, including K24S, K27S, or K24S/K27S can prevent heparin binding and increase the half-life of CXCL12 in vivo; therefore, similar mutations in CXCL12α2 would likely prevent heparin binding and increase the in vivo half-life of the dimer.

[2] abbreviates: Ca2+-flux, CXCR4-expressing THP-1 cells.

“Also recorded” adds a separate entry of the source. Where two headings read alike, the source gives them in different places.

T2 sequence (P61073 whole entry): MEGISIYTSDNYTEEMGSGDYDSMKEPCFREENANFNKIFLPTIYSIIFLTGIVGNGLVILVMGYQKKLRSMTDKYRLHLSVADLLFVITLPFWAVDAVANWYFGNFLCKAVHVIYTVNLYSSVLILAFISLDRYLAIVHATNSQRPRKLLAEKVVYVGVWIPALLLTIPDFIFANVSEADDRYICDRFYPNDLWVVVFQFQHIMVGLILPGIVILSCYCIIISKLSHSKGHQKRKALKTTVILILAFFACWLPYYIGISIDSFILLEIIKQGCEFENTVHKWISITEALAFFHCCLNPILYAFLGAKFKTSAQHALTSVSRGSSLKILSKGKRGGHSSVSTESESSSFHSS
T1 sequence (P48061 22-89 limits assumed): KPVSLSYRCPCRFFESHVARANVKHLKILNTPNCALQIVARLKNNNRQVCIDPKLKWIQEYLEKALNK

In the case of `CC[C@H](C)[C@H](NC(=O)CNC(=O)[C@H](CCC(=O)O)NC(=O)[C@H](CCSC)NC(=O)[C@H](CO)NC(=O)CN)C(=O)N[C@@H](CO)C(=O)N[C@H](C(=O)N[C@@H](Cc1ccc(OS(=O)(=O)O)cc1)C(=O)N[C@H](C(=O)N[C@@H](CO)C(=O)N[C@@H](CC(=O)O)C(=O)N[C@@H](CC(N)=O)C(=O)N[C@@H](Cc1ccc(OS(=O)(=O)O)cc1)C(=O)N[C@H](C(=O)N[C@@H](CCC(=O)O)C(=O)N[C@@H](CCC(=O)O)C(=O)N[C@@H](CCSC)C(=O)NCC(=O)N[C@@H](CO)C(=O)NCC(=O)N[C@@H](CC(=O)O)C(=O)N[C@@H](Cc1ccc(OS(=O)(=O)O)cc1)C(=O)N[C@@H](CC(=O)O)C(=O)N[C@@H](CO)C(=O)N[C@@H](CCSC)C(=O)N[C@@H](CCCCN)C(=O)N[C@@H](CCC(=O)O)C(=O)N1CCC[C@H]1C(=O)N[C@@H](C)C(=O)N[C@@H](Cc1ccccc1)C(=O)N[C@@H](CCCNC(=N)N)C(=O)N[C@@H](CCC(=O)O)C(=O)N[C@@H](CCC(=O)O)C(=O)N[C@@H](CC(N)=O)C(=O)N[C@@H](C)C(=O)N[C@@H](CC(N)=O)C(=O)N[C@@H](Cc1ccccc1)C(=O)N[C@@H](CC(N)=O)C(=O)N[C@@H](CCCCN)C(=O)O)[C@@H](C)O)[C@@H](C)O)[C@@H](C)CC` [p38-sY3], the Kd on CXCL12-α came to 200 ± 200 nM.
As to “CXCL12-α2: covalently locked dimer comprising two CXCL12 L36C/A65C sequences (SEQ ID NO: 1)”, the CXCR4 functional character result with CXCR4 (detection of secondary messenger calcium) is listed as “partial CXCR4 agonist”. Moreover, in the series on THP-1 cells, the “chemotactic response” value is on record as “failed to attract cells; also recorded: does not chemoattract THP-1 cells”. Also, in series [1], the “diffusion coefficient Ds” value is 1.08-1.09 ×10^−6 cm^2s^−1. Moreover, the “predicted inhibition of HIV-1 entry into human T cells” value with HIV-1 is reported as “more effective at lower concentrations”. In addition, the heparin binding result in the series “Heparin binding” is on record as “binds heparin”.

B1: R20A: wild-type CXCL12-α with R20 replaced by alanine (protein)
chain: KPVSLSYRCPCRFFESHVAAANVKHLKILNTPNCACQIVARLKNNNRQVCIDPKLKWIQEYLEKCLNK
In the case of B1, in the series with CXCR4 (setting [2]), the 50% effective concentration (EC50) worked out at 4.3 ± 0.6 nM and the “EC50, CXCR4 activation” value was “no change in EC50”.

B2: K27E: CXCL12-α mutant, glutamic acid at K27 (protein)
chain: KPVSLSYRCPCRFFESHVARANVKHLEILNTPNCACQIVARLKNNNRQVCIDPKLKWIQEYLEKCLNK
On to B2, for which, in the series with CXCR4 (setting [2]), the half-maximal effective concentration (EC50) was 16.8 nM.

B3: H25R: dimerization-impaired, preferentially monomeric CXCL12-α variant (protein)
chain: KPVSLSYRCPCRFFESHVARANVKRLKILNTPNCACQIVARLKNNNRQVCIDPKLKWIQEYLEKCLNK
modifications: ends and bridges not checked
notes: dimerization-impaired, preferentially monomeric CXCL12-α variant
In turn, B3 had an EC50 with CXCR4 (setting [2]) of 5.1 ± 0.9 nM. Moreover, the “chemotactic response” value in the series on THP-1 cells (listed as CXCL12-α (H25R)) is “induces chemotaxis over a broader range”; with THP-1 cells (listed as CXCL12-α(H25R)), “promotes cell migration much more strongly than the wild-type chemokine at higher concentrations”.

B4: V49A: CXCL12-α mutant V49A (protein)
chain: KPVSLSYRCPCRFFESHVARANVKHLKILNTPNCACQIVARLKNNNRQACIDPKLKWIQEYLEKCLNK
In the series with CXCR4 (setting [2]), B4 showed an EC50 of 8.6 ± 2.4 nM.

B5: K27A: CXCL12-α mutant, alanine at K27 (protein)
chain: KPVSLSYRCPCRFFESHVARANVKHLAILNTPNCACQIVARLKNNNRQVCIDPKLKWIQEYLEKCLNK
Molecule B5 gave an EC50 with CXCR4 (setting [2]) of 10.1 nM.

B6: E63A: CXCL12-α mutant E63A (protein)
chain: KPVSLSYRCPCRFFESHVARANVKHLKILNTPNCACQIVARLKNNNRQVCIDPKLKWIQEYLAKCLNK
B6 yielded an EC50 with CXCR4 (setting [2]) of 3.7 ± 0.8 nM.

B7: V39A: CXCL12-α mutant V39A (protein)
chain: KPVSLSYRCPCRFFESHVARANVKHLKILNTPNCACQIAARLKNNNRQVCIDPKLKWIQEYLEKCLNK
In the case of B7, the response with CXCR4 (setting [2]) was half-maximal at 27.1 nM (EC50).

B8: K64A: CXCL12-α mutant K64A (protein)
chain: KPVSLSYRCPCRFFESHVARANVKHLKILNTPNCACQIVARLKNNNRQVCIDPKLKWIQEYLEACLNK
Consider B8, for which the response in the series with CXCR4 (setting [2]) was half-maximal at 5 ± 1.1 nM (EC50).

B9: E60A: CXCL12-α mutant E60A (protein)
chain: KPVSLSYRCPCRFFESHVARANVKHLKILNTPNCACQIVARLKNNNRQVCIDPKLKWIQAYLEKCLNK
As to B9, the EC50 in the series with CXCR4 (setting [2]) is 4.1 ± 0.1 nM.

B10: R47A: CXCL12-α mutant R47A (protein)
chain: KPVSLSYRCPCRFFESHVARANVKHLKILNTPNCACQIVARLKNNNAQVCIDPKLKWIQEYLEKCLNK
On to B10, for which, in the series with CXCR4 (setting [2]), it took 14.1 nM to reach a half-maximal effect (EC50).

B11: R41A: CXCL12-α mutant R41A (protein)
chain: KPVSLSYRCPCRFFESHVARANVKHLKILNTPNCACQIVAALKNNNRQVCIDPKLKWIQEYLEKCLNK
Regarding B11, the concentration for a half-maximal effect (EC50) with CXCR4 (setting [2]) was 4.3 ± 0.9 nM.

B12: R47E: CXCL12-α mutant, arginine 47 replaced by glutamic acid (protein)
chain: KPVSLSYRCPCRFFESHVARANVKHLKILNTPNCACQIVARLKNNNEQVCIDPKLKWIQEYLEKCLNK
As to B12, a half-maximal effect with CXCR4 (setting [2]) (EC50) was put at 654 nM.
